Reference: publication PMC3408433, “Selective Cytotoxicity of Amidinopiperidine Based Compounds Towards Burkitt’s Lymphoma Cells Involves Proteasome Inhibition” (PLoS ONE, 2012)

Legend:
Format in all cases: biochemical
Conditions in all cases: other: substrate on purified human 20S proteasome; pH 8.0; 37.0 °C
[1] = substrate: Cc1cc(=O)oc2cc(NC(=O)[C@H](CCC(=O)O)NC(=O)[C@H](CC(C)C)NC(=O)[C@H](CC(C)C)NC(=O)OCc3ccccc3)ccc12; experiment: Proteasome activity measurement, caspase-like
Procedure: (§1) Suc-Leu-Leu-Val-Tyr-AMC, Bz-Val-Gly-Arg-AMC and Z-Leu-Leu-Glu-AMC (Bachem, Bubendorf, Switzerland) were used for the chymotrypsin-like, trypsin-like and caspase-like activites, respectively. Assay buffer consisted of TE buffer (20 mM Tris (pH = 8.0), 0.5 mM EDTA, 0.03% SDS). Substrate hydrolysis was continuously monitored at 37°C with an automated microplate reader (Tecan Safire^2). Measured fluorescence values (RFU) were plotted versus time with nonlinear regression to fit a Michaelis-Menten plot.
(§2) For the Ki determination, 25 µL of substrate at three concentrations and 25 µL of inhibitor of interest also at three different concentrations were added to the wells of a white microplate. The reaction was initiated with 50 µL of the enzyme in the assay buffer. Flourescence of the AMC release was continuously monitored at 420 nm with 320 nm excitation.
(§3) Km and Ki were calculated using SigmaPlot 11 (Enzyme Kinetics Module 1.3) and are presented as the mean of three independent experiments.

[2] = substrate: Cc1cc(=O)oc2cc(NC(=O)[C@H](CCCNC(=N)N)NC(=O)CNC(=O)[C@@H](NC(=O)c3ccccc3)C(C)C)ccc12; experiment: Proteasome activity measurement, trypsin-like
Procedure: as §1, §2, §3

[3] = substrate: Cc1cc(=O)oc2cc(NC(=O)[C@H](Cc3ccc(O)cc3)NC(=O)[C@@H](NC(=O)[C@H](CC(C)C)NC(=O)[C@H](CC(C)C)NC(=O)CCC(=O)O)C(C)C)ccc12; experiment: Proteasome activity measurement, chymotrypsin-like
Procedure: as §1, §2, §3

B1: caspase-like activity of human 20S proteasome (Homo sapiens) (protein)
chain: TTIMAVQFDGGVVLGADSRTTTGSYIANRVTDKLTPIHDRIFCCRSGSAADTQAVADAVTYQLGFHSIELNEPPLVHTAASLFKEMCYRYREDLMAGIIIAGWDPQEGGQVYSVPMGGMMVRQSFAIGGSGSSYIYGYVDATYREGMTKEECLQFTANALALAMERDGSSGGVIRLAAIAESGVERQVLLGDQIPKFAVATLPPA
notes: purchased Boston Biochem, Inc
Km [1]: 37 ± 9 µM

B2: trypsin-like activity of human 20S proteasome (Homo sapiens) (protein)
chain: TTIAGVVYKDGIVLGADTRATEGMVVADKNCSKIHFISPNIYCCGAGTAADTDMTTQLISSNLELHSLSTGRLPRVVTANRMLKQMLFRYQGYIGAALVLGGVDVTGPHLYSIYPHGSTDKLPYVTMGSGSLAAMAVFEDKFRPDMEEEEAKNLVSEAIAAGIFNDLGSGSNIDLCVISKNKLDFLRPYTVPNKKGTRLGRYRCEKGTTAVLTEKITPLEIEVLEETVQTMDTS
notes: purchased Boston Biochem, Inc
Km [2]: 44 ± 5 µM

B3: chymotrypsin-like activity of human 20S proteasome (Homo sapiens) (protein)
chain: TTTLAFKFRHGVIVAADSRATAGAYIASQTVKKVIEINPYLLGTMAGGAADCSFWERLLARQCRIYELRNKERISVAAASKLLANMVYQYKGMGLSMGTMICGWDKRGPGLYYVDSEGNRISGATFSVGSGSVYAYGVMDRGYSYDLEVEQAYDLARRAIYQATYRDAYSGGAVNLYHVREDGWIRVSSDNVADLHEKYSGSTP
notes: purchased Boston Biochem, Inc
Km [3]: 100 ± 12 µM
